In the assay the target is CD40 (human) (UniProt P25942). Put plainly: cell-based or functional assay.
Sequence of UniProt P25942 (P25942 21-277): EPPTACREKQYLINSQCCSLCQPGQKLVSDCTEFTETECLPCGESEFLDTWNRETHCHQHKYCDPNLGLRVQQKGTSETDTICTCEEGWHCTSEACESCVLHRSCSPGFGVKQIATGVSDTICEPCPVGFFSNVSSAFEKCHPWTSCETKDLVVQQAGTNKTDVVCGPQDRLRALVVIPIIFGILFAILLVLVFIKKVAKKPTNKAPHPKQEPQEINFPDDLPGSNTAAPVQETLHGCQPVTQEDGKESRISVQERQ

In turn, “Anti-CD40 antibody (IgG1 mutant, REGN3794)” yielded a T cell activation (percentage of live CD2+CD16-CD8+ cells expressing CD25) (% below CD20×CD3 (REGN1979) alone) of 35.

The record behind these values is patent publication US20220233690A1.
